The values that follow come from article PMC9293640, “Insights into the structural dynamics and helicase-catalyzed unfolding of plant RNA G-quadruplexes”.

The target of one series is T1, DExH1 (Arabidopsis thaliana, UniProt F4ILR7 1-995).
T1 sequence: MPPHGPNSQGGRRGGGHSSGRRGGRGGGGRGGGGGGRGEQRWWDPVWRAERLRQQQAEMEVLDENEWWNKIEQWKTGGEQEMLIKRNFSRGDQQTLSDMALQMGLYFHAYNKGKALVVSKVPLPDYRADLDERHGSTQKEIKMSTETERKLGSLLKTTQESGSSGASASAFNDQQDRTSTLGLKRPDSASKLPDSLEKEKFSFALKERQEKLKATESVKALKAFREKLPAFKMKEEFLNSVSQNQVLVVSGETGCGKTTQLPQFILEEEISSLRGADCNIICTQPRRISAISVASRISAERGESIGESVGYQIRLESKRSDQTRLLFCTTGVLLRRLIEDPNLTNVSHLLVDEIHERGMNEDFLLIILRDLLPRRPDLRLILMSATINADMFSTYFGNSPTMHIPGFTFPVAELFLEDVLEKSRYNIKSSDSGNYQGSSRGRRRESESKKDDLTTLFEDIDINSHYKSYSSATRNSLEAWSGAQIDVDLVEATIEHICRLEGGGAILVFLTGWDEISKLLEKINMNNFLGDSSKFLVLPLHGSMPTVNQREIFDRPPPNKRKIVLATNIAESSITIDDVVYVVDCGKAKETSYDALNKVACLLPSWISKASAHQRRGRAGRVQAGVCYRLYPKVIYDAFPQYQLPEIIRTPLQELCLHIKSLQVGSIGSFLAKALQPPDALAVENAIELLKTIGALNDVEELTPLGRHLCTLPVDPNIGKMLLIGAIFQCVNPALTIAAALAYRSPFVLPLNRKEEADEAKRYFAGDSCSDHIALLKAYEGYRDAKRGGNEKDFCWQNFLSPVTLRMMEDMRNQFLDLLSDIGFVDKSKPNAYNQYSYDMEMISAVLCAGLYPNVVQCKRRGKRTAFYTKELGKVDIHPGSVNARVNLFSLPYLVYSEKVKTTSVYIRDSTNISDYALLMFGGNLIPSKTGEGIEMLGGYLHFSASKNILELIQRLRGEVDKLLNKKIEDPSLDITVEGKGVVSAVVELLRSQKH
Description: MST; preferred substrate (3' tail rG4); EC50 only in figure; MST: 20 nM FAM-RNA, buffer not in material; pull-down: 20 mM Tris-HCl pH 7.5, 300 mM KCl, 0.1% Tween-20, 2 mM EDTA, RNase inhibitor, 4 °C 4 h. The note with it: protein: recombinant; tags: 6xHis-SUMO removed; label: 3'-FAM; G4, 3' ss tail 15 nt.

Another series addresses T2, DExH15 (Arabidopsis thaliana, UniProt B9DFG3 1-1171).
T2 sequence: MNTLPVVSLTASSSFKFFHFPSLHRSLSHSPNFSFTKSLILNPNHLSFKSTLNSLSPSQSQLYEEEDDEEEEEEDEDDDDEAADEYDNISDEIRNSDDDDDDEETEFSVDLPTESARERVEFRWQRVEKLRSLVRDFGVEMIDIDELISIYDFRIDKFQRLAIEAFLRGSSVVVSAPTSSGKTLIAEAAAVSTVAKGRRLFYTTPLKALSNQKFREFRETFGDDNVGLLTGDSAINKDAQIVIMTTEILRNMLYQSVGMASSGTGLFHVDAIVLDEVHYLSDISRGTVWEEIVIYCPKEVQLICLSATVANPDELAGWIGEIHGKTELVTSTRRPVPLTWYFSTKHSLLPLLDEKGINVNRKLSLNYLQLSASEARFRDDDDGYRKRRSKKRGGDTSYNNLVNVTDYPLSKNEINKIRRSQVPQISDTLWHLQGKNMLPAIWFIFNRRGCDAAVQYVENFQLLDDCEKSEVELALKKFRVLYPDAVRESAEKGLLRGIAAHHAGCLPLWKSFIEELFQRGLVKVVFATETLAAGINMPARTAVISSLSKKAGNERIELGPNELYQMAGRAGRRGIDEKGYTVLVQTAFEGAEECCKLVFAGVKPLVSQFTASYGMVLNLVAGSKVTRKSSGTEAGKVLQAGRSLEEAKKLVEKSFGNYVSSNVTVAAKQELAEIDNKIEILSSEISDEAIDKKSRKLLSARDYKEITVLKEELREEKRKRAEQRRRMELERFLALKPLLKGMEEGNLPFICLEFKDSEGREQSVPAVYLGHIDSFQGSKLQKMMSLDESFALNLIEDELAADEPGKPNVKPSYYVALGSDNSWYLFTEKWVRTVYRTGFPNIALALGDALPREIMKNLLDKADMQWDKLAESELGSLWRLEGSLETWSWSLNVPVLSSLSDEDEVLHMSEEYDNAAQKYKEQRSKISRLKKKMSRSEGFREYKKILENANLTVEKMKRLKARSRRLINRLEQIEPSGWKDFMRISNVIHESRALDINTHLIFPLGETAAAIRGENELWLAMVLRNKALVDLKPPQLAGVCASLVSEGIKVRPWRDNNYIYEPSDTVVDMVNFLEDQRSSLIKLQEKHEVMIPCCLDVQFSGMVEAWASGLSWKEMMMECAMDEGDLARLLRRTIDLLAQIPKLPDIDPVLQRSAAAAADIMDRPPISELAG
The series is described as above. Conditions: protein: recombinant; tags: 6xHis-SUMO removed; label: 3'-FAM; G4, 3' ss tail 15 nt.

Take GGGAGGGAAGGGGAAGGGGUUUUUUUUUUUUUUU (structured_RNA) [G4S (3' tail rG4)]: the binding result in the series with DExH1 and in the series with DExH15 was “binds” throughout.
